Reference: the DeepSol protein solubility set

Assay: soluble on expression in E. coli; label from the status in PepcDB or PDB records

| Sequence | soluble on expression in E. coli |
| --- | --- |
| MGSDKIHHHHHHMVIKEFNSLNTELVREIEKLTETCGKFDGIQEEVNLDDGFNFNKSMKWLFVLYEKDKVVSVVSIFAPKEEEGEISACTLPEYRRKGYFKELLSKAKNELLKYNVPKILFVCPKGSKQGEAVIKNSDAIYKFAEYTMNFNKNKFKAKGKYITKLAEANYNDLNKITKVASDVYSESYEQANSMMKNALESSDRLQFKLKLKEDYIGVVAAYFYHDKVSIFGVGILPEYRGRGFGREMMSMLLEYLIERDYDDIALEVDSNNKRAFELYKSIGFQIEREIDYYEEKINNTFYSY | not soluble |
| MIKKVLIANRGEIAVRIIRACKEMDIETVAIYSEADKESLHVQIADEAYCVGPTISKESYLNLTNIISVAKLTGCDAIHPGYGFLAENADFAELCRECNLIFIGPSPEAISKMGTKDVARDTMKEAGVPIVPGSQGIIKNTEEAIELANQIGYPVIIKATAGGGGKGIRVARHEEELVKGIQITQQEASTAFGNPGVYLEKYVEDFRHVEIQIMADTHGNAIHLGERDCTIQRRLQKLLEESPSPALDENVRKQMGEAAVKAAVAVDYTGAGTVEFIYEYKTKSFYFMEMNTRIQVEHPVTEMVTGVDLIKEQILVASGEKLSLQQEEVQFNGWAIECRINAENPAKKFMPSPGKVEMYLPPGGFGIRVDSAVYPGYSIPPFYDSMVAKLIVHGKTREEAIAKMKRALSEFVVEGVHTTIPFHLQLLDHPDFVKGEFNTKFLEEHELVTQ | not soluble |
| MLKDEYGRVVTNLRIAVTKKCNLRCFYCHKEGESNPGEEISAERIVEIARAFKELGVRKLKITGGEPLLRKDLPDIILNLPEFEEISMTTNGILLEKYAEELRECGLSRVNVSLDTLDAEKYRWITGGGEVQKVVNGIEKACEVGLTPVKINMLVLGGVNDNEVDELLEFTNSFNRGNTKAILQVIELVPFPGFEKYFFDISTIEEKYARMATQRRVRAMHRRTQYFTPKGVIEFVKPMDNTAFCMHCNRMRVTSDGKLKPCLLRNETITIDGKHGEELARAIIETVRKREPYFKG | not soluble |
| MQTQKPVFSEVTVHDPSIIKANGTYYVFGSHLASAKSTDLMNWTQISSSVHDGNPLIPNVYEELKETFEWAESDTLWAPDVTQLEDGKFYMYYNACRGDSPRSALGLAVADDIEGPYKNKGIFLKSGMDGISNDGTPYDATKHPNVVDPHTFFDQNGKLWMVYGSYSGGIFILEMDKKTGFPLPGQGYGKKLIGGNHSRIEGAYILYHPETQYYYLYMSFGGLAADGGYNIRVARSKNPDGPYYDAEGHAMIDVRGKEGTLFDDRSIEPYGVKLMGNFSFNNKNGYVSPGHNSAFYDEKSGKSYLIFHTRFPGRGEEHEVRVHQLLMNKQGWPVVAPHRYAGEKLEKVKKSDVIGDYELVRHGKDISADIKESKEIRLNQNGKITGAVAGTWKNTGHNKIELKIDGKTYDGVFLRQWDAASERKVMTFSALSREGDAVWGSSLKRAEFLEHHHHHH | soluble |
| MSLSDLTIQKVESRILDVPLIRPHGFATTTSTEQHILLVSVHLENGVIGYGEGVVPGGPWWGGESVETMKALVDGYLAPVLIGRAVSELAGIMADLERVVARARYAKAAVDVAMHDAWARSLNVPVRDLLGGTVRDKVDVTWALGVLPLDVAVAEIEERIEEFGNRSFKLKMGAGDPAEDTRRVAELAREVGDRVSLRIDINARWDRRTALHYLPILAEAGVELFEQPTPADDLETLREITRRTNVSVMADESVWTPAEALAVVKAQAADVIALKTTKHGGLLESKKIAAIAEAGGLACHGATSLEGPIGTAASLQFAASTKAISYGTELFGPQLLKDTYIVQEFEYKDGQVAIPQGPGLGVDVDMDKVNFYTRKEGHHHHHH | soluble |
| MGSDKIHHHHHHDEIDTLVSKSDNAITFGTYVGKQTKALDKSAFAKDDKFGVSAYYGDGTFEANFMSNETISTTDGSTWTYTNTKYWPEGNPVSFVAYYPNLTTAPTITDGATAIPFTVKNDATEQVDFMWSTVKAATKDDKNGTAINGITNTTTDATSVPFVFQHGLSKISFKAKLGEASYSGVTIKVKSIKINGVKNKGTFTIPADLTAGTWATEDAATNDYTVSETNGKEIASTTADSIGESLLMIPQDMKGKTIEIAYDLVYTNPAQTISNTKAIVLDDKSNWVMNQQYTYTLTISLETVQLTASVGQFGANIDL | not soluble |
| MSSNLTSNEMSSTSAIVEPPEAVKGNERDKSTRRSTSQVVRPEKHEVENALEDQCSSSSLPKEAQYYAKLDKKLEGKDPRSQFYEAVRLSADIFAHKFEKAVCSRQTFEPTNSIIKVLNTAEEEMLHEKVVPLPVSSKLQYYLNRGRYDTIFDRDEQLQRTADPMADEPDHVEKRVTSILEQASREMEEGEVEPVFYDGSDEDQELPIDLGAMRNLQRTNKFAARSSRMAARRGGRPGYRGAFRGAARGAPSRRPAPAAEVAPETPVAAPMAPAAPAAPATPEAAPAAEVMDTSIATEMPQESAVDLSNVSAATEMDTSKEGEASRPTSEKKKKIRTTEMDRLMSMDLGPKDGGRVGELGHMWPESRRRPAAPLPETPAAQPRKSLPRRAAEKKKPEDSDAAEEQEVEMEVDNDASTSTPRNARGGRGGGNRRGSRRGQKRTSGGSGKLVEPKKEPVDEPAEKIPKRSEAAPEVPATATTKEAPPSTSSSPPDAPATPATPASSDSRDSPRKIRAMIFSLTGSPPESETPPVLQQEQVISTAAPTAGRHPNIIQQVPHINRIPPQPLRRLTAPQAPPASQPEEPPVQQTVPVVKVELASAPAPIVRDPQSTEPVPPAMPTLVENNHEATLILPPNKTSDYTRWNAQDLINWVRLLITNNVDSTIAIMVREEFDGETLACLVLDDDFRKEVPIPYGHYKKMKIYGTEVLNHYRTEKYQADLRKFHEELAAWKAQQR | not soluble |
| MKLSAYHKARGGLVEWWNPKNHYDLVYKSRVFTDTYSKDTIAVTNADAVILGGTGYDLGENLPDAVEHTRPDAALYPQFSDTAYGFLSRGCPRNCGFCIVSGKEGRRSRKVADLSEFWDGQKEIKLLDANLLACPDHEALILQLAESRAWVDFSQGLDIRLITPDNVALLNRVRTRAVHFAWDNPDEDLTGYFRRFLELTAIKSDRKRRVYVLTNYGSTHEQDLYRVETLRGMGYDPYVMVYDRPAAPKITRQLQRWVNNKRIFYTVKNFADYIPNRTGGIT | not soluble |
| MDISTNKANYKPAVSQAFDGQETQDGTNILILGSDQRVTQGSTDARTDTIMVVNVGNHAKKIKMVSFMRDTLINIPGYSYNDNSYDLKLNSAFNLGEQEDHHGAEYVRRALKHNFDIDIKYYVMVDFETFAEAIDTLFPNGVKIDAKFATVGGVAVDSVEVPDDLRMKNGVVPNQTIEVGEQRMDGRTLLNYARFRKDDEGDFGRTVRQQQVMSAVMSQIKDPTKLFTGSAAIGKIYALTSTNVSFPFVVKNGVSVLGSGKNGVEHVTIPENGDWVDEYDMYGGQALYIDFDKYQKTLAKLGLRLEHHHHHH | soluble |
| MDKPILKDSMKLFEALGTIKSRSMFGGFGLFADETMFALVVNNQLHIRADQQTSSDFETQGLKPYVYKKRGFPVVTKYYAISSELWESSDRLIEVAKKSLENAKLEKEQQASTKPNRLKDLPNLRLATERMLKKAGIDSVAQLEEEGALSAYKAIRDTHSTTVSLELLWALEGAINGTHWSVVPQSRREELMNGLS | soluble |
| MVMFMVFRILGRMTKIEKEIKEEEAKYDLIIKNEAKIEPIVAEEDMEFKQGDIKPIRIKKIKIPPMSVLLICPYGRHRVGHVVAVGEEVPMPIDVEREVDMAMFACGFEGEVKKGDLIGMLLILAAEKRELEHHHHHH | not soluble |
| ENAFKRRRCGVCEVCQQPECGKCKACKDMVKFGGSGRSKQACQERRCPN | soluble |
| SGGGGGILEKLGDICFSLRYVPTAGKLTVVILEAKNLKKMDVGGLSDPYVKIHLMQNGKRLKKKKTTIKKNTLNPYYNESFSFEVPFEQIQKVQVVVTVLDYDKIGKNDAIGKVFVGYNSTGAELRHWSDMLANPRRPIAQWHTLQVEEEVDAMLAVKK | soluble |
| MAHHHHHHMRVALIFGITGQDGSYLSELLLEKNYHVHGVIRRCSSFNTKRIDHIFDKLILHYGDLLDSSNICSLICEIKPNEIYNLAAQSHVKVSFEMPEYTTEATALGTLRILEGIRISKVKNIKFYNASTSELFGKVQCPIQNENTPFYPVSPYAIAKLYAHYITINYRESYNMFCINGILFNHESPRRGETFVTRKITRGIAKIQKKLETSIILGNIDTYRDWGHAKDYVYAMYLMLQQNEADDFVICSNEQHSVREFCEISFSFVNIHIKWIGKGIQEIGVDQNNNVLIKKHEKYFRNCEVNTLLGDCSKAKNILKWEPTYTFTQLVYEMLKCDMQDYNLSMDDYDTCMKKYDTYKMGKKQ | not soluble |
| MSLIDFHFHAPVKEFLDFLGEFGEPAIKYFNAKVEVKGLKETLDYYESFGIKRFVVLPIDSTTFLGRRIPNQVINLDDRIVKFISVDPSKPNADEELKRSIKEFEPVGVKLHPQLQGFHPLDERALKIYEIIDNHGLIVVFHTGTSGIGAGVKSSIRLDYGRPIYFDEIAVRFQNMKIILAHFGWPWTEEAIAIALHKPNVYLDLSGWAPRYIPQVIWSNAKRLSDKLLFGSDFPLIRPERWLEEFKSVNLSQDIKDKILKHNAEKLVKKSEGHHHHHH | not soluble |
| MGHAHSSSSNGSSQITANPHDEKTKEKVEKLFRQNNRTNRSRSLDNRTQEKLPNRPVGSSHSARFPKTRHIPVPLQGPRKSEEGPNGSISGLSRDDKRIIETCWFKCSQKQLRKCSCDMFWDILHTDEDILRLFRLDHVAPNRLKDNDYFKSHASNLALVLNLVVTNLQDNFDQAQDALQALGYQHLHLIDRTHFQTMYWDIFTDCFERNPPPSFKKGAEREVALKFHRF | not soluble |
| MSLADPDGGERSRRAARAASLSSSSRPTSVSAKQPCRVKFICRVLRPVVQGFLTSLGYRAAIGRAPSARQLRDYLLVPEVTRLHAENYGFYGRRKMHALMRRQGWVIGRDQTERLMRLAGVRGVRKSKRVLTTHSDKTTVLPADLVNRRFTAPAPRRLWVCDVTYVATWSGFAYVAFVTDVYSRRIVGWNVAATLRSEILPMQALDMAAWGAGGDLTSLIHHADHGSNSEGHHHHHH | soluble |
| MSLDNNIKIIPFGGVRENGKNMYAVEIEDQIFILDTGLKYPENELMGIDVVIPDWEYLREHKDKIVGVFLTHGHADSIGALPYFLMDFNVPVFGSEMTIALAKLAVKNHKEVKKFNDFHVVDASTAIDFNDVTVSFFQTTHTIPETLGVVLETKAGNIVYTGDFKFDQTAKKGYQTDLARLAEIGSQGVLALLSDSAGAGITGASAREQDIGDYIKETFKYQNGRIIVASVASNIMRVQQIINAAVAVGRKIVLSGKDIEQIIDTAMSLGKLHLPDDLFISRKEAEKLEPNQVVILETGKMGEPIKSLQQIANGDNPNLQLTSTDLVFVTTTPSYAQETEVQKTKDMIYRTGAEVKFISDDLNPSGHANQNDEQLMLNFMKPKFFIPIQGEYRLLDRHAELAEEVGIPKENIFLVNKGDVLTYKNGKFHVGEHIDVSNTMIDGTGVGDIGNIVLRDRRVLSEDGIFVVVATIDRKKKKIVARPQITSRGFVFVKTNRQLMQQSADLVEKIVQENLDQKEFDWSHLKQDVRDKLNRFLFDQTKRHPVILPVIMEINQHQKKIKNEGHHHHHH | soluble |
| MGSDKIHHHHHHMKDGKLYVAFSGGKDSSLVAILAKMALGEERVELVTVDWSPYTYERSREIVRNFAEKHGLKHTFIPSNRMQEKVWKHGPSCNACTRDVKTVLVKRYAQGHLVASGANASDSWGKTGLKVFDGVYSPLCRVGKEEINEMLKFLGLEVKKIGESAGREGCKLKHLLKMLINPDYHGKAVSTANEILLRVLEEHGFKPELANVKIIGPLSRNIALVNVKPLPPEKVMNEIVEKLSAEETIDGVIVVDGPMKLVVLASPAIYRNEESRKWIKEGRLQPEFAFPIEIEWRESKNNKLRTFQVVDARKE | not soluble |
